The data set concerns Saccharomyces cerevisiae. Nature of the data set: transcriptional activation domain activity (GFP:mCherry ratio, weighted mean of sorted bins, harmonized to initial dataset scale) (arbitrary fluorescence ratio units); higher = stronger transcriptional activation. The conditions noted are these: beta-estradiol 1 µM; induction time 4 h. Put shortly:
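The activation activity of each tile is the read-weighted mean of bin median fluorescence, averaged across its barcodes and mapped linearly onto the scale of the initial dataset. Tiles were fused to an estradiol-inducible synthetic transcription factor, barcoded, and integrated at URA3 in yeast diploids carrying a GFP reporter. Induction used 1 uM beta-estradiol in SC for 4 hours at 30 °C, after which cells were sorted into 8 GFP:mCherry bins, and any tile with fewer than 50 reads was dropped.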
Take “MGVCGVFISFLAWGGCLVLLNVRLHLRGLIFSLSNLFYDTVHVTCIWFFLFRL”: the “transcriptional activation domain activity” value worked out at 65300.
For “PSPPKCQVPTLYAVIFRILAYLRLLDAFLFHVYILLTLHELWLIIWIPHHHQS” the value was 41400; for “TFVRLVMLIAMKVFKFDFLVLSYLATIVYSVCFLTYLCDWHSIFPFAWYHHIY”, 47000; for “MFGICTYSIPFLYFPPIPFVSYVSTLYFFVSHSISFHYLYIYCSIHLPFFLFI”, 69000.
The result for “MMNKTPGFLSLIPPFVIDLILLRCCLDPNISLNVTYRTLYFLMWFFQSVYLAV” reads 53200.
Consider “MRQVHIVFSGRDSGRESDIEVVSETSVFHDAAFVLGCVLVRGRSFAAPLLTAL”, for which the “transcriptional activation domain activity” value came to 32700.
The result for “GGAGKGKGAAAAAAKAAGAARDVEDIVAREPEPHHKGAGGAGKGKGAAAAAAK” reads 41900.
The result for “SLPLPDTLPFPLPDSLHLPLTDDFSLTLQDALPFLYMDSLPFPLPMPFLFYFW” reads 69600.
For the sequence “TEQSVFVGLLLYRLKYPANLVSLVLKLSAVQSTLFKVVFAVYLLVWWGIKQAR”, the “transcriptional activation domain activity” value is 63100.
The result for “GFFFAIACLFICQGWMLGGDQSIKSISLGGGFLCLFFFSLFSFLFASWCVWLC” reads 38700; that for “AAQRSVMLGHNLVTLEDILMTQRKWRAVLHETFYVRWIAVLRRWLCRLLDWPV”, 42900; that for “MTSRHSFKAIKVLVICCVFLFFLLLKRKDHFNSCCLIFHIKIGLIDVLIFFYF”, 41900.
As for “QLALFRWCAKMCGDVLSARDLVILGCRILLRCLRSYAWDFLFGHLLFALRLVR”, the “transcriptional activation domain activity” value turned out to be 72000.
With “MFCLRSWIPILFFLLRTNASPIYLILFISATYFLNRPCVYCSLLLFILVVALF”, the “transcriptional activation domain activity” value was 50800.
The result for “NTCCCFFVCSFPSSKQKTLGALREGSWTFFFCFFLFFFLFFLVFFCFFLFCFF” reads 24000; that for “ISLLVLGCWIPFIILMEGYLQSLTFESFPYPGLYCFTSQGSHIIYLCWVLIAI”, 60200.
“REAAGRERGERGRDNARGAGEREQPGRVRARLRGGRGKAREGEEGSCVRSAAP”: the “transcriptional activation domain activity” value came to 22900.
The result for “VVPYYCLFVFFPFYSCVLVRLAGNCHSCLIIALFFLILISGRSFFFFFFFFFF” reads 14200; that for “KRHLPWPWNGERLIFILQDVWVPNFNEHHLLWTLDLKRKGLTFIALTNVWGIY”, 50300; that for “KKERKKEEKEEKGEKVKGKGERYVSDQVEEERERRRKRRNAKRQEREEEREKR”, 42900.
“NEEQTINLINYVLTCSNTVIRNTVFRNKVLNLLVSMILALKTPDYFIIFKIVV”: the “transcriptional activation domain activity” value was determined as 74300.
The result for “CLTQGLGICRDAENPEVNPDTATGEEGDVRTRCFQRDSLKDQVIVLAFLIITT” reads 28900; that for “MWCTRWFLPLLLLPLPTAPPFFLALFLISLTLHSKPCFYCILLLTTLFLTSCY”, 45300; that for “PLVVFPNFMAVVIIFGFFFMYFEDFNKEVFLHNKHHQIWVYLHFPLHLCQVAF”, 78400.
The result for “MSFVDLHGIWGFFLPFIFSVINWYLNYVLILTLLFFLCHVRIWVLYLVNIYRE” reads 55000; that for “MSWQRVYRGWVVNGPGFGFFGRYYWIIIIRLAVPRRLLTCSCWCFGWLLFFLI”, 65700.
For the sequence “MGSGDTFFYWKLFSFSLSLLTRFSPLYFGWPFLKTIPLFMYFFLCRVLPLFLM”, the “transcriptional activation domain activity” value was determined as 53400.
“RRRRRHEEGGRGGDRSRGRDGERSSTRHEERRHRSRDRRDDRDRDRGSERRGH”: the “transcriptional activation domain activity” value was 44500.
The result for “VALTFYFLFLLFLILLRLGLISCFVFFNFWYIYHFFYLSINLSIFFISFHSFI” reads 78300; that for “YLKELTRCAKLPYSTRAMKNLNNVAITCACTLLVSVPHFNFRGDLLKIIVAKV”, 39500; that for “IWVAPWNAGKILFFLIRYLVFVDTSVSIVYLAGGPLTLSRCHTLFGWFTASFT”, 74800.
For “EDEETARPKRKSPSAVLKSHTARVSRAVFGRDAKGASAYSCGFDSTVRTWDVE” the value was 49700; for “HFSLLWPPHCSLWCTLFFLLIGHFVFILCLCYSVFFSFPSFLLIVSCFLLCFP”, 37800.
The result for “HTFVRICKLAGDLIDWVGMCVDCGKCSATQGRDCLDVIMRLSIMAVHGLRFVG” reads 51400; that for “MSSVAAAESKPEKKQKKDKSSKSEKKRLREDDAADAERKHKKSKSLASSEVAA”, 15100.
In the case of “MCEQHTCLFVLLSVKLLLWRLLFFVESSFLDGMELVLTGRWWAYYIYLWCLTV”, the “transcriptional activation domain activity” value turned out to be 54400.
For “ARVLRWCLTMICLTVSALLGRVILFSSAALTLVEILHDDFGFSRNLVLKNLCN” the value was 90400; for “PMRLHVDHVHVVGRPFLWYIIVAMCDNVTHVVLSFSGLTYYTTSRWFESIPYR”, 61200; for “KLIKHNKNVRTWWKKDDQFWVPRGHIHVYFRTPIIGITVRAQLTASLFINLVH”, 47300.
For “VRLVDIFLLKKYYLINLSLAYLSILLFPPPSPRPLYHLFSIYFFFFLFSSASP”, the “transcriptional activation domain activity” value was 45400.
For “MLFPCGVLFLSVFSISDTYVAFFFFFFFSFGWSFVSIGFLLFTIFFLGISFFF” the value was 32300; for “MVQCAVAECAEEGQSQCGRCKQRFYCSAECQQKDWAAHKKACKKPTATAGPAP”, 39500.
The result for “LLYLLLLLRKVSVMLCFIDLLIFGIFLCFLSLLLFLSLFFLFLFLLVFSEEFF” reads 37600; that for “SNDGEDENGDGVSNEKSGRKKGKGRRKRGKDQAQVKGDQEPQDGEAGGEGGAE”, 21600; that for “TSVLPIIAVHCAYKTPISDYILAFCYLLPYIYHSMGYLVRWLYLGLRVIFVAK”, 70400.
As to “DEVMKIMPVQKQTRAGQRTRFKAFVVIGDSEGHVGLGVKCAKEVATAIRGAII”, the “transcriptional activation domain activity” value was determined as 59300.
For “CFAMVQQIFAKLLIMFEPRLDIPLLKFYTLLYRSVYYAICRRQQLYQEDMIAA”, the “transcriptional activation domain activity” value is 57700.
The result for “ESHLVPEASKIWKPLDGYWMPSWMKYQIFIPLFMLQLLNLFWYFLIWHILIRA” reads 44900; that for “ASTETPLPVPKRRGRPPKNNNAAGIVVFDGGEEAPAVKKRGRPKKVTEPVAST”, 23100.
The result for “MYLFFFFFFFGWVLSLLLYVFFGLGIIGIGIVLFVFVLAFFFLFLGGIFFCGL” reads 43900; that for “MLHLPLFLLYFFFFSLLLYFSFFPSSFFFFLLSPPFPLLIFSLFLSFLLLFPP”, 40200.
For “VHLLLTVFFHYVPTPDPFFTNLLLCPLDGLLRANSVTLALSLLSRPSINPLLV”, the “transcriptional activation domain activity” value came to 58300.
For “MLFGRSFMGTYFISGKHVFFFFLVFFNSLFLFYLLTSTFISICITGSLFFFVL”, the “transcriptional activation domain activity” value is 30400.
The result for “SDSGSEVDEKNNKNEKIDSESIKNNESKDDIPSKDENSSNDNREISKTDEEGH” reads 35100; that for “ESKNKAEEETEEGEGARGEEEEEEKEEQGESDNEDANSAEADKTKSKQGKKQR”, 31900; that for “EMIMGFFFKNIVWTLTLFWYQIFCQFNGSMMFDYALVTLFNLVFTSLPIMCMG”, 52100.
“KSVVLERKLAIGQCRHLFTVNDNWLVSVWNDFHVGIVVRNMVFFLCRLVFDFM”: the “transcriptional activation domain activity” value turned out to be 42700.
For the sequence “MEYLIGHMEIYSVHFLHFCFFLRFLIFFFPLFFFFSYFSFHSYIYTFFFLEII”, the “transcriptional activation domain activity” value came to 31800.
Regarding “NLQKIISYLLPAGSWSEDWPIILNVFFGCPLPLSSFLMVIICCFTDLFCCLTL”, the “transcriptional activation domain activity” value is 47100.
For “SNASLSAQHPLGIDEEDLSSKPRCQRCRKSKKGCDRQRPCGRCKDAGIGIEGC” the value was 35300; for “EKKEKSSRKSTSRAAANGTAEKASKGEASSKKSRGASRPRSPKKTRSPAGRPA”, 24500; for “KPHHKWIIPTPFASHAFHPVDGYLQSVPYHLFIFLFPMHQYVYLGLFVAVNFW”, 72400.
The result for “RCMVIYRSSGFFFWAIVLLPCLMFLASFSESLFQYISSPSFTVTVRLGLGILF” reads 63200; that for “AANKNAKRREARKKAAAAAGEGNEEDKGASAETKEDKSAEVKEKENVKPASEK”, 29600.
For “AAKMAREYKKGERQAGRMRTEKGERGEEDGREREGTRRRREKEKEKNKEKGPR” the value was 46000; for “YFYGLERRHVTCSQLAYYLCDKALTPMFCGGRVGNDCFDPWGRLLTYWCFLPL”, 77300.
Take “FGAIFVELYFIMSSIWFSKIYYMFGFLFLCYGLMILTCATVTILMVYFLLCAE”: the “transcriptional activation domain activity” value worked out at 60500.
In the case of “PLNMLHLGTWYLDGFQPFEHLRANKELWNLLVRGQTEILSLPRFGWTGWLLSF”, the “transcriptional activation domain activity” value worked out at 46900.
As to “LTQSRGFIWPPILLAVFFSALGGFYWWSASFFLLASPVAFAPCLFWVLLLFLF”, the “transcriptional activation domain activity” value was determined as 18000.
The result for “MWCTRWYIPLLLLPIPTAPPYFLILFLFSLTLHARPCFYCILLLLTLFLSSCY” reads 58500.
The result for “LFATLLKLRVDQLLIMMDPTDLIRSILLSNENHQVLSALDFCWTLMHSVFPLL” reads 78100; that for “ELLDELLARNKSLVILVLDQIFMFILAWNRDYDRYDIQKIIGLYYIQSNVSLF”, 52100; that for “TECASIPFAKMRALLNGIPVTNLNDRDRMMLFIFKLVLLEVRSKNTLEILSNH”, 33400.
The result for “FGNPPLIWFFWALFSPLFLFFFFFPIFFLSFPFFSFSFLFSFFVLLGVLKAYL” reads 22100.

For the origin of these results see the supplement of paper PMC12636428.
